Experimental findings from US20250034275A1 (CHIA TAI TIANQING PHARMACEUTICAL GROUP, published 2025) are described below.

One may read the Kd as a measure of binding affinity in units of concentration. In general, koff refers to a measure of how fast the partners let go of each other. The kon is the second-order rate constant of association. Read a low kon as slower complex formation. In general, EC50 refers to the concentration giving half of the maximal effect. Higher therefore signals a need for much substance.

Residue numbers refer to the chain shown, from its start.

B1: ch-Ab35 (antibody, human IgG1, kappa, V domains shown)
VH: EVQLQQSGPDLVRPGASVKLSCKASGYTFTSSDINWVKQRPGQGLEWIGWIYPRDGSKKYNEKFKGKATLTVDTSSSTAYMEVHSLTSEDSAVYFCATRFATVVSNYGLDPWGQGTSVTVSS
VL: AIVLTQSPAIMSASPGEKVTMTCSASSSVNYIYWYQRKPGSSPRLLIYDTSNLASGVPVRFSGSGSGTSYSLTISRMEAEDAATYYCQQWNSYPLTFGAGTKLELKR
notes: Mouse VH/VL on human IgG1 and human kappa constant regions; also called chimeric antibody of Ab35
B2: hz-Ab21-2.1 (antibody, human IgG1, kappa, V domains shown)
VH: EVQLVESGGGLVKPGGSLRLSCAASGFTLRNYGVHWVRQAPGKGLEWVGVIWSSGTTDYAAPVKGRFTISKDNSKNTLYLQMNSLKTEDTAVYYCTRDGDYDYYTMDYWGQGTLVTVSS
VL: EIVLTQSPATLSLSPGERATLSCRASKSVSTSAYSYIHWYQQKPGQPPRLLIYLTSNLESGIPARFSGSGSGTDFTLTISSLEPEDFAVYYCQHSRELPYTFGQGTKVEIKR
notes: Humanized antibody
B3: hz-Ab21-2.2 (antibody, human IgG1, kappa, V domains shown)
VH: B2 VH with A60N, P62A, V63F, K64I, G65S
VL: B2 VL
notes: Humanized antibody
B4: hz-Ab35-2.1 (antibody, human IgG1, kappa, V domains shown)
VH: QVQLVQSGAEVKKPGASVKVSCKASGYTFTSSDINWVRQRPGQGLEWMGWIYPRDGSKKYAQKFQGRVTMTVDTSTSTVYMELSSLRSEDTAVYYCATRFATVVSNYGLDPWGQGTLVTVSS
VL: EIVLTQSPATLSLSPGERATLSCSASSSVNYIYWYQRKPGQAPRLLIYDTSNLASGIPARFSGSGSGTDYTLTISSLEPEDFAVYYCQQWNSYPLTFGQGTKVEIKR
notes: Humanized antibody
B5: hz-Ab35-2.2 (antibody, human IgG1, kappa, V domains shown)
VH: B4 VH with A61N, Q62E, Q65K, T98R
VL: B4 VL
notes: Humanized antibody

For the first test, the target named is T1, human Trop-2 (on the surface of human cell lines) (human, UniProt P09758 27-323).
T1 sequence: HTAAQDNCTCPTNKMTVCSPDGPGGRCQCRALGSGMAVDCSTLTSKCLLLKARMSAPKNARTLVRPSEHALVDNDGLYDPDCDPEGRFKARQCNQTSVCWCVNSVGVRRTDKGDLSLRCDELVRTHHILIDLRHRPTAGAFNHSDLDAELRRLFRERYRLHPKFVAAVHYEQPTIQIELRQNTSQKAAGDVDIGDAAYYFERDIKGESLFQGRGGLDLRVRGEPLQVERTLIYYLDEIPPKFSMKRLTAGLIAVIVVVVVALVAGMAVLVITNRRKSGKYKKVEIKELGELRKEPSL
Nature of the test: cell-based or functional assay.
Consider B1, for which the “ADCC reporter (Jurkat-CD16a v158-NFAT-luciferase), target cell H322, EC50” value (shortened to “ADCC reporter … target cell H322, EC50”) came to 0.02 nM and the “ADCC reporter (Jurkat-CD16a v158-NFAT-luciferase), target cell HCC1806, EC50” value (from here on “ADCC reporter … target cell HCC1806, EC50”) was 0.04 nM.

As for B2, the “ADCC reporter … target cell H322, EC50” value was found to be 0.21 nM and the “ADCC reporter … target cell HCC1806, EC50” value turned out to be 0.39 nM.

As for B3, the “ADCC reporter … target cell H322, EC50” value came out at 0.15 nM and the “ADCC reporter … target cell HCC1806, EC50” value worked out at 0.26 nM.

Turning to B4, the “ADCC reporter … target cell H322, EC50” value came out at 0.1 nM and the “ADCC reporter … target cell HCC1806, EC50” value was found to be 0.23 nM.

With B5, the “ADCC reporter … target cell H322, EC50” value was found to be 0.11 nM and the “ADCC reporter … target cell HCC1806, EC50” value came to 0.26 nM.

For a further test, the target named is T2, human Trop-2-His (human, UniProt P09758 27-274, limits assumed).
T2 construct: by analogy with the macaque construct it is probably the extracellular domain with a His tag; also called Trop-2-His protein
T2 sequence: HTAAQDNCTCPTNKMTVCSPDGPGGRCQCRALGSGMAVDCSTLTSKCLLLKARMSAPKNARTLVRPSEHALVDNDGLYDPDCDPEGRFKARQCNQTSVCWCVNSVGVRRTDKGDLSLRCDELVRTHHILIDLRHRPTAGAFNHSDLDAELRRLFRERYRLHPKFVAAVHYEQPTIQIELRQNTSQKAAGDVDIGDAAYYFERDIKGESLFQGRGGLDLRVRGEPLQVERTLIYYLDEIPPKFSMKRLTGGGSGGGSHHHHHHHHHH
Put plainly: SPR (Biacore 8K), antibody captured, Trop-2-His as analyte. The source says:
The affinity of antibodies for human Trop-2-His was detected in the form of antibody capturing. The antibody was affinity-captured by a CM5 (Cat. #29149603, GE) biosensor chip conjugated with an anti-human IgG antibody (from human antibody capture kit, Cat. #29234600, GE), then the antigen human Trop-2-His flowed on the surface of the chip, and a Biacore 8K instrument was used for detecting reaction signals in real time to obtain association and dissociation curves. After dissociation was completed for each assay cycle, the chip was washed clean and regenerated with a regeneration buffer, 3M MgCl₂ (from human antibody capture kit, Cat. #29234600, GE). The association and dissociation curves were collected by Biacore 8K Control Software 3.0 in real time, and the data were analyzed by Biacore Insight Evaluation Software 3.0. The data were fitted using a Langmuir 1:1 model after double subtraction (namely, in each cycle, the contrast channel signal was subtracted from the experimental channel signal, and the sample signal was subtracted from the blank signal), and the association rate constant Ka, the dissociation rate constant Kd, and the equilibrium constant KD were calculated.
Background: SPR reads the build-up and loss of mass on a sensor chip optically.
Molecule B2 yielded a Kd of 1.38 nM, a koff of 0.000559 s⁻¹ and a kon of 404000 M⁻¹ s⁻¹.

As to B3, the Kd was 1.33 nM, the koff is 0.000611 s⁻¹ and the kon came out at 460000 M⁻¹ s⁻¹.

In turn, B4 had a Kd of 0.444 nM, a koff of 0.000194 s⁻¹ and a kon of 436000 M⁻¹ s⁻¹.

B5: the Kd came to 8.82 nM, the koff was 0.00357 s⁻¹ and the kon stood at 405000 M⁻¹ s⁻¹.

Another test addresses T1, human Trop-2 (on the surface of human …). Nature of the test: flow cytometry, HCC1806 cells. On the procedure: (§1) Tumor cells expressing Trop-2 were prepared into a cell suspension (0.5-1×10⁶ cells/mL) using the FACS buffer (Miltenyi Biotec, 130-091-221), and the cell suspension was added to a 96-well V-bottom plate at 100 μL/well. After centrifugation and removal of the supernatant, the test antibodies diluted with the FACS buffer to different concentrations (0.006 nM-100 nM) were each added at 50 μL/well. The mixture was incubated in the dark in a 4° C. refrigerator for 1 h. The plate was then washed 3 times with the FACS buffer by centrifugation at 300 g, and Alexa Fluor 488 goat anti-human IgG (H+L) (Bio-legend, 409304, 1:500 dilution) at working concentration was added. The mixture was incubated in the dark in a 4° C. refrigerator for 40 min. The plate was then washed 3 times with the FACS buffer by centrifugation at 300 g, the geometric mean fluorescence intensity (MFI) was measured on a Sartorius iQue3 flow cytometer, and the binding EC₅₀ values of the antibodies for tumor cells with different Trop-2 expression levels were calculated
With B1, the response was half-maximal at 0.38 nM (EC50).

Regarding B2, the EC50 came to 0.63 nM.

Consider B3, for which the EC50 came to 1.18 nM.

The molecule B4 showed an EC50 of 0.76 nM.

The molecule B5 returned an EC50 of 0.58 nM.

For a further test, the target named is T2, human Trop-2-His. Nature of the test: ELISA, plate-coated human Trop-2-His. On the procedure: (§2) After the liquid was discarded, 2% BSA (SIGMA, B2064-100G) diluted with PBS was added at 300 μL/well for blocking, and the mixture was incubated at 37° C. for 2 h. After the blocking was completed, the blocking buffer was discarded, the plate was washed 3 times with PBST buffer (pH 7.4 PBS containing 0.1% tween-20), the antibody solution diluted in a gradient was added at 100 μL/well, and the mixture was incubated at 37° C. for 1 h. After the incubation was completed, the plate was washed 3 times with PBST, the goat anti-human IgG (H+L) (JacksonImmunoResearch, 109-035-098, 1:5000 dilution) was added at 100 μL/well, and the mixture was incubated at 37° C. for 1 h. After the plate was washed 3 times with PBST, a TMB chromogenic substrate (TIANGEN, PA107-01) was added at 100 μL/well. The mixture was incubated at room temperature for 10-15 min, and then 1 M H₂SO₄ was added at 50 μL/well to terminate the reaction. The absorbance values at 450 nm were taken using a microplate reader. The binding curves of antibodies for antigen were fitted using software, and the EC₅₀ values were calculated.
Background: In an ELISA, binding on a coated surface is turned into a signal by an enzyme label.
Consider B1, for which a half-maximal response (EC50) required 0.043 nM.

Take B2: the EC50 stood at 0.214 nM.

Molecule B3 registered an EC50 of 0.223 nM.

On to B4, for which the EC50 is 0.055 nM.

B5 registered an EC50 of 0.054 nM.

The target of the next test is T1, human Trop-2 (on the surface of human …). Put plainly: flow cytometry, HCC38 cells. On the procedure: as §1
In turn, B1 displayed an EC50 of 0.45 nM.

B2 registered an EC50 of 0.64 nM.

For B3, a half-maximal effect (EC50) was put at 0.66 nM.

For the molecule B4, a half-maximal effect (EC50) was put at 0.89 nM.

On to B5, for which it took 0.91 nM to reach a half-maximal effect (EC50).

The next test shares this target. Nature of the test: cell-based or functional assay. This is another data set of the same source.
Consider B1, for which the “ADCC, PBMC killing (LDH), H322, EC50” value was 0.01 nM; the “ADCC, PBMC killing (LDH), H322, Maximum killing (%)” value (“ADCC … H322, Maximum killing (%)” below) turned out to be 51.9%; the “ADCC, PBMC killing (LDH), HCC1806, EC50” value is 0.02 nM; the “ADCC, PBMC killing (LDH), HCC1806, Maximum killing (%)” value (from here on “ADCC … HCC1806, Maximum killing (%)”) was determined as 38%.

Turning to B2, the “ADCC, PBMC killing (LDH), H322, EC50” value is 0.02 nM; the “ADCC … H322, Maximum killing (%)” value was determined as 44.5%; the “ADCC, PBMC killing (LDH), HCC1806, EC50” value stood at 0.12 nM; the “ADCC … HCC1806, Maximum killing (%)” value stood at 32.2%.

On to B3, for which the “ADCC, PBMC killing (LDH), H322, EC50” value was found to be 0.07 nM; the “ADCC … H322, Maximum killing (%)” value is 51.6%; the “ADCC, PBMC killing (LDH), HCC1806, EC50” value turned out to be 0.18 nM; the “ADCC … HCC1806, Maximum killing (%)” value is 40.6%.

With B4, the “ADCC, PBMC killing (LDH), H322, EC50” value came out at 0.02 nM; the “ADCC … H322, Maximum killing (%)” value was found to be 51.3%; the “ADCC, PBMC killing (LDH), HCC1806, EC50” value came to 0.03 nM; the “ADCC … HCC1806, Maximum killing (%)” value was 35.2%.

For B5, the “ADCC, PBMC killing (LDH), H322, EC50” value was 0.01 nM; the “ADCC … H322, Maximum killing (%)” value worked out at 51.4%; the “ADCC, PBMC killing (LDH), HCC1806, EC50” value was 0.02 nM; the “ADCC … HCC1806, Maximum killing (%)” value is 35.9%.

A further test shares this target. Nature of the test: flow cytometry, OVCAR-3 cells. On the procedure:
as §1
Background: A flow cytometer gives signals particle by particle.
In turn, B1 yielded an EC50 of 0.37 nM.

B2 returned an EC50 of 0.68 nM.

In turn, B3 had a concentration for a half-maximal effect (EC50) of 0.8 nM.

As to B4, it took 0.9 nM to reach a half-maximal effect (EC50).

With B5, the EC50 is 0.88 nM.

A further test addresses T3, Macaque Trop-2-His (macaque, UniProt P09758 27-274 (human entry)).
T3 construct: Extracellular domain of macaque Trop-2 recombinantly linked to His; also called monkey Trop-2-His protein; monkey Trop-2
T3 chain: T2 sequence with M36V, S67N, I204V
Nature of the test: ELISA, plate-coated macaque Trop-2-His. How it is done: as §2, with “times with the PBST buffer” for “times with PBST buffer”
B1 returned an EC50 of 0.048 nM.

Take B2: the EC50 is 0.064 nM.

On to B3, for which it took 0.081 nM to reach a half-maximal effect (EC50).

For B4, the EC50 amounted to 0.056 nM.

For the molecule B5, it took 0.05 nM to reach a half-maximal effect (EC50).
